The chains are these.
B1: NETO1 (parent)
chain: GFSPIIGRFCGQQNPPVIKSSGRF
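Note: lentivirally expressed fusions sorted by FACS into six bins by GFP to DsRed ratio, PSI derived from sequencing read proportions per bin multiplied by bin number.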

In the series the parent is B1. Kind of series: protein stability index of a GFP-peptide fusion (GPS, HEK-293T) (PSI 1-6); higher = more stable. The settings on record: c terminus: a fixed tail appended.
Regarding GFSPIIGRFCGQQEPPVIKSSGRF, the protein stability index worked out at 2.38.

In the case of GFSPIIGRFCGQQDPPVIKSSGRF, the protein stability index came to 2.48.

Regarding GFSPIIGRFCGQQFPPVIKSSGRF, the protein stability index was 2.26. Under GFSPIIGRFCGQQWPPVIKSSGRF stands 1.87. With GFSPIIGRFCGQQMPPVIKSSGRF, the protein stability index stood at 1.8. Take GFSPIIGRFCGQQTPPVIKSSGRF: the protein stability index was determined as 1.67. The same measure for GFSPIIGRFCGQQVPPVIKSSGRF: 1.24. The same measure for GFSPIIGRFCGQQRPPVIKSSGRF: 2.12. Under GFSPIIGRFCGQQPPPVIKSSGRF stands 2.21; under GFSPIIGRSCGQQNPPVIKSSGRF, 1.98; under GFSPIIGRCCGQQNPPVIKSSGRF, 2.06. GFSPIIGRHCGQQNPPVIKSSGRF: the protein stability index turned out to be 1.69. As to GFSPIIGRTCGQQNPPVIKSSGRF, the protein stability index is 1.75. Under GFSPIIGRLCGQQNPPVIKSSGRF stands 2.49; under GFSPIIGRKCGQQNPPVIKSSGRF, 2.49.

As for GFSPIIGRGCGQQNPPVIKSSGRF, the protein stability index is 1.97. The same measure for GFSPIIGRNCGQQNPPVIKSSGRF: 2.42. Under GFSPIIGRMCGQQNPPVIKSSGRF stands 2.17.

Consider GFSPIIGRQCGQQNPPVIKSSGRF, for which the protein stability index was determined as 2.38. The same measure for GFSPIIGRECGQQNPPVIKSSGRF: 3.73; for GFSPIIGRACGQQNPPVIKSSGRF: 2.87.

Take GFSPIIGRPCGQQNPPVIKSSGRF: the protein stability index came to 1.95. For GFSPIIGRWCGQQNPPVIKSSGRF, the protein stability index was found to be 2.27. Under GFSPIIGRRCGQQNPPVIKSSGRF stands 2.07; under GFSPIIGRVCGQQNPPVIKSSGRF, 2.66. GFSPIIGRDCGQQNPPVIKSSGRF: the protein stability index was 3.31.

For the variant GFSPIIGRYCGQQNPPVIKSSGRF, the protein stability index was 1.98. The same measure for GFSPIIGRICGQQNPPVIKSSGRF: 2.45; for GFSPIIGRFCGQQNGPVIKSSGRF: 2.79. Under GFSPIIGRFCGQQNEPVIKSSGRF stands 2.27; under GFSPIIGRFCGQQNIPVIKSSGRF, 2.1. Under GFSPIIGRFCGQQNHPVIKSSGRF stands 2.01. GFSPIIGRFCGQQNFPVIKSSGRF: the protein stability index came out at 2.34.

As to GFSPIIGRFCGQQNDPVIKSSGRF, the protein stability index stood at 2.4.

Take GFSPIIGRFCGQQNCPVIKSSGRF: the protein stability index was 2.19. The same measure for GFSPIIGRFCGQQNKPVIKSSGRF: 1.99; for GFSPIIGRFCGQQNAPVIKSSGRF: 2.44; for GFSPIAGRFCGQQNPPVIKSSGRF: 2.1. Under GFSPIPGRFCGQQNPPVIKSSGRF stands 2.95; under GFSPISGRFCGQQNPPVIKSSGRF, 2.94. Under GFSPIHGRFCGQQNPPVIKSSGRF stands 2.77; under GFSPIKGRFCGQQNPPVIKSSGRF, 3.17.

Take GFSPILGRFCGQQNPPVIKSSGRF: the protein stability index turned out to be 2.55. The same measure for GFSPIWGRFCGQQNPPVIKSSGRF: 2.68; for GFSPIVGRFCGQQNPPVIKSSGRF: 2.15; for GFSPIGGRFCGQQNPPVIKSSGRF: 2.58. Under GFSPIMGRFCGQQNPPVIKSSGRF stands 2.05; under GFSPINGRFCGQQNPPVIKSSGRF, 2.37; under GFSPIFGRFCGQQNPPVIKSSGRF, 2.16.

For GFSPICGRFCGQQNPPVIKSSGRF, the protein stability index was 2.11. Under GFSPIRGRFCGQQNPPVIKSSGRF stands 3.09; under GFSPIDGRFCGQQNPPVIKSSGRF, 3.54. The same measure for GFSPIYGRFCGQQNPPVIKSSGRF: 1.91; for GFSPIQGRFCGQQNPPVIKSSGRF: 2.38; for GFSPIEGRFCGQQNPPVIKSSGRF: 3.28. Under GFSPITGRFCGQQNPPVIKSSGRF stands 2.39. For the variant GFSPIIGRFCDQQNPPVIKSSGRF, the protein stability index worked out at 2.76.

For the variant GFSPIIGRFCQQQNPPVIKSSGRF, the protein stability index came to 2.38. Under GFSPIIGRFCTQQNPPVIKSSGRF stands 2.58; under GFSPIIGRFCRQQNPPVIKSSGRF, 1.63; under GFSPIIGRFCCQQNPPVIKSSGRF, 1.6. Turning to GFSPIIGRFCMQQNPPVIKSSGRF, the protein stability index is 1.51. Under GFSPIIGRFCEQQNPPVIKSSGRF stands 2.54. Turning to GFSPIIGRFCYQQNPPVIKSSGRF, the protein stability index turned out to be 1.89. Under GFSPIIGRFCIQQNPPVIKSSGRF stands 1.83.

As to GFSPIIGRFCPQQNPPVIKSSGRF, the protein stability index is 2.58. The same measure for GFSPIIGRFCKQQNPPVIKSSGRF: 1.91.

Take GFSPIIGRFCNQQNPPVIKSSGRF: the protein stability index was 2.17. The same measure for GFSPIIGRFCVQQNPPVIKSSGRF: 2.36; for GFSPIIGRFCHQQNPPVIKSSGRF: 1.91. Under GFSPIIGRFCFQQNPPVIKSSGRF stands 2.03; under GFSPIIGRFCSQQNPPVIKSSGRF, 2.38; under GFSPIIGRFCLQQNPPVIKSSGRF, 2.31.

With GFSPIIGRFCWQQNPPVIKSSGRF, the protein stability index was found to be 2.26.

With GFSPIIGRFCAQQNPPVIKSSGRF, the protein stability index was found to be 2.01. As to GFSPIIGRFCGQNNPPVIKSSGRF, the protein stability index is 2.31.

As to GFSPIIGRFCGQFNPPVIKSSGRF, the protein stability index stood at 1.75. Under GFSPIIGRFCGQRNPPVIKSSGRF stands 2.64. The same measure for GFSPIIGRFCGQWNPPVIKSSGRF: 1.61; for GFSPIIGRFCGQYNPPVIKSSGRF: 2.22; for GFSPIIGRFCGQKNPPVIKSSGRF: 1.88.

Consider GFSPIIGRFCGQMNPPVIKSSGRF, for which the protein stability index came to 2.3. Under GFSPIIGRFCGQLNPPVIKSSGRF stands 2.3; under GFSPIIGRFCGQHNPPVIKSSGRF, 1.88; under GFSPIIGRFCGQDNPPVIKSSGRF, 1.96. Under GFSPIIGRFCGQGNPPVIKSSGRF stands 1.89; under GFSPIIGRFCGQINPPVIKSSGRF, 2.17. Under GFSPIIGRFCGQCNPPVIKSSGRF stands 1.42. As for GFSPIIGRFCGQANPPVIKSSGRF, the protein stability index is 1.83. Under GFSPIIGRFCGQENPPVIKSSGRF stands 2.22; under GFSPIIGRFCGQSNPPVIKSSGRF, 1.63; under GFSPIIGRFCGQPNPPVIKSSGRF, 2.31. Consider GFSPIIGRFCGQVNPPVIKSSGRF, for which the protein stability index is 2.36.

For GFSPIIGRFCGQTNPPVIKSSGRF, the protein stability index stood at 3.12.

For the origin of these results see the supplement of paper PMC10567573.
